According to patent US7919461B2, “Erythropoietin receptor peptide formulations and uses” (Affymax, Inc., priority 2005, dated 2011):
“Also recorded” adds a separate entry of the source. Bridge positions count the residues as written; N and C are the ends. Square brackets hold non-standard residues; d marks the D form. Ends that are not written are not given here. 1Nal = N[C@@H](Cc1cccc2ccccc12)C(=O)O; Sar = CNCC(=O)O

What was measured:
[1] = Pharmacology studies in animals, stimulation of erythropoiesis; assay type: in vivo, mice; rats, dogs, rabbits and monkeys
[2] = Phase 1 single IV dose study in normal healthy volunteers, safety; assay type: in vivo, human
Excerpt: (§1) Peptide I has been tested in […] in one Phase 1 study. This first-in-human study with Peptide I was a randomized, double-blind, placebo-controlled, single-dose, IV, escalating dose, safety and tolerability trial. The primary objectives of the study were to evaluate the safety and pharmacokinetics of Peptide I, and to establish a pharmacologically active dose (PAD). Cohorts of seven male volunteers were scheduled to receive single doses of Peptide I or placebo in a 5:2 ratio. Cohorts were to be added at increasing dose levels until a PAD, as determined by an increase in hemoglobin from baseline values, was observed, at which point the dose level identified as the PAD would be repeated in another cohort of volunteers.
(§2) The study was initiated in four cohorts were enrolled in a consecutive manner at Peptide I doses of 0.025, 0.05, 0.1 mg/kg, and […], respectively (single dose per cohort). […] As such, the study was terminated.

[3] = Phase 1 single IV dose study in normal healthy volunteers, pharmacokinetics; assay type: in vivo, human; details: dose normalized, ANOVA
Excerpt: as §1, §2
In the 0.025 mg/kg dose group, Peptide I concentration peaked between 5 and 15 minutes, while tmax approached 1 hour for the 0.1 mg/kg dose.

[4] = Phase 1 single IV dose study in normal healthy volunteers, pharmacodynamics; assay type: in vivo, human
Excerpt: as §1, §2

[5] = Phase II multi-dose once-monthly SC study in pre-dialysis chronic kidney disease patients; assay type: in vivo, human
Description: A multi-center, open-label, sequential dose-finding phase II clinical trial involving patients with chronic kidney disease was performed in order to evaluate the safety and pharmacodynamics of multiple doses of once-monthly (Q4W) subcutaneous (SC) delivery of Peptide I (SEQ ID NO:2). A total of 60 erythropoiesis-stimulating-agent-naïve, pre-dialysis, chronic kidney disease (CKD) patients [hemoglobin (Hgb) levels 9.0-10.9 g/dL, ferritin >100 ug/L and transferrin saturation (TSAT)>20%] were enrolled into three dose cohorts. Patients received up to six once-monthly SC drug doses. The starting doses were 0.025 mg/kg (n=15), 0.050 mg/kg (n=30) and 0.075 mg/kg (n=15). Dose titration was allowed after the first dose, based on patient Hgb levels.
Dose titrations were allowed after the patient's initial dose. Dose adjustments were ±25% of the previous dose, depending on the patient's measured hemoglobin (Hgb) level.

[6] = Pharmacokinetic studies in rats; assay type: in vivo; details: species not stated

In the case of “PEGylated homodimer of peptide monomers (AcG)GLYACHMGPIT(1-nal)VCQPLR(MeG)K (SEQ ID NO: 2); fully synthetic EPO receptor agonist (Ac-GGLYACHMGPIT[1Nal]VCQPLR[Sar]K; disulfide 6-15 (inferred); not fully specified (residue 1); printed as (AcG)GLYACHMGPIT(1-nal)VCQPLR(MeG)K; also: homodimer via branched linker on K21 ε-amino group, PEG attached to linker) [Peptide I]”, the “rise in reticulocytes and RBCs as measured by hemoglobin levels” value ([1]; rats and monkeys) is reported as “dose proportional”, the stimulation of erythropoiesis ([1]; single or repeat dose, mice, rats (normocythemic and nephrectomized), dogs, rabbits, monkeys) is reported as “dose-dependent activity” and the “abdominal pain, frequency” value ([2]; Peptide I recipients) is reported as 10.0%. For the same substance, the “headache, frequency” value ([2]; Peptide I recipients) was 20.0%, the “nasopharyngitis, frequency” value ([2]; Peptide I recipients) was 10.0% and the “nausea, frequency” value ([2]; Peptide I recipients) was 10.0%. The “subjects who experienced adverse events” value ([2]; Peptide I recipients) was 11 of 20, the “Serious Adverse Events” value ([2]; human, in vivo) was “no Serious Adverse Events” and the “antibodies specific to Peptide I” value ([2]; human, in vivo) was “None of the subjects in this trial developed antibodies”. The “vital signs, electrocardiograms (ECGs) or laboratory values” ([2]; human, in vivo) was “no clinically significant changes”, the safety and tolerability ([2]; single IV doses of 0.025, 0.05, or 0.1 mg/kg) was “safe and well tolerated” and the “AUC(0-infinity) relationship with dose” value [3] was “evidence of non-linearity at the highest dose of 0.1 mg/kg; also recorded: nonlinear at the 0.1 mg/kg dose”. The “increase in hemoglobin associated with the PAD” value ([4]; 0.1 mg/kg) was ≥ 1.0 g/dL, the “average maximum increase in hemoglobin from baseline” value ([4]; 0.1 mg/kg, 10 recipients) was 1.36 ± 0.39 g/dL and the “average hemoglobin levels at Day 42” value ([4]; 0.1 mg/kg, Day 42) was “returned to baseline”. For the same substance, the “difference in change from baseline hemoglobin versus placebo” value ([4]; 0.1 mg/kg, Day 42 as throughout the study) was ≥ 0.5 g/dL, the “time of maximum reticulocyte counts postdose” value ([4]; all dose cohorts) was “approximately 7 days” and the “changes in other pharmacodynamic parameters (red cell count, hematocrit, ferritin, reticulocyte hemoglobin content, soluble transferrin receptor, EPO)” value ([4]; human, in vivo) was “consistent with stimulation of erythropoiesis”. For the same substance, the “hemoglobin response and change from baseline (mean and maximum)” value ([4]; over 28 days post-dose) was “dose-dependent increases”, the “Reticulocyte count (absolute number and percent)” value ([4]; single IV 0.025, 0.05, 0.1 mg/kg) was “dose-dependent increase” and the “pharmacologically active dose (PAD)” value ([4]; single IV dose, NHV) was 0.1 mg/kg. The “Serum EPO levels” value ([4]; with increasing dose) was “transiently decreased”, the “patients reporting adverse events” value ([5]; 60 patients) was 18% and the injection site reaction ([5]; SC) was “no injection site reaction was reported”. The “hemoglobin (Hgb) increase” value ([5]; dosed monthly) was “sustained increase in hemoglobin (Hgb) up to week 22”, the “number of adverse events” value ([5]; human, in vivo) was 36 and the “relation of adverse events to study drug” value ([5]; human, in vivo) was “not related to study drug”. The “tolerability of multiple monthly subcutaneous injections” value ([5]; human, in vivo, sc) was “well-tolerated”, the correction of anaemia ([5]; monthly dosing) was “correction of anaemia in patients by week eight” and the Biodistribution [6] was “primarily to the plasma fraction”.
